The target of assay [1] is T1, mVISTA-COMP-his, pentameric form comprising the extracellular IgV domain of murine VISTA (mouse) (UniProt Q9D659).
T1 sequence (Q9D659 whole entry, looked up): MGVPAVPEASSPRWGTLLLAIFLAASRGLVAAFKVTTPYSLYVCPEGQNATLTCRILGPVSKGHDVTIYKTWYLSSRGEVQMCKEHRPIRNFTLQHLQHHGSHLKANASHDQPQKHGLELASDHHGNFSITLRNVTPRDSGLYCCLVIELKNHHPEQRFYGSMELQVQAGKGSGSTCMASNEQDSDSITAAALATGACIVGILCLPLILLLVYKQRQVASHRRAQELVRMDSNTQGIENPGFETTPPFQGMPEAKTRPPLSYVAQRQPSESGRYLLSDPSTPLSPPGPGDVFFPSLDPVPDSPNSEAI
Briefly: SPR (BIAcore T200), single-cycle kinetics; mVISTA-COMP-his captured on anti-His chip, mAb as analyte; 1:1 Langmuir fit. Background: SPR reads the build-up and loss of mass on a sensor chip optically.

Assay [2] addresses hVISTA-COMP-his, pentameric form comprising the extracellular IgV domain of human VISTA (human) (UniProt Q9H7M9). As to the kind of experiment: SPR (BIAcore T200), single-cycle kinetics, hVISTA-COMP-his captured on anti-His chip, mAb injected at 20, 40, 80, 160, 320 nM, 1:1 fit.
Assay [3] deals with T2, murine VISTA on mouse splenocytes (macrophages, neutrophils, CD4+ T cells) (mouse) (UniProt Q9D659).
T2 sequence (looked up): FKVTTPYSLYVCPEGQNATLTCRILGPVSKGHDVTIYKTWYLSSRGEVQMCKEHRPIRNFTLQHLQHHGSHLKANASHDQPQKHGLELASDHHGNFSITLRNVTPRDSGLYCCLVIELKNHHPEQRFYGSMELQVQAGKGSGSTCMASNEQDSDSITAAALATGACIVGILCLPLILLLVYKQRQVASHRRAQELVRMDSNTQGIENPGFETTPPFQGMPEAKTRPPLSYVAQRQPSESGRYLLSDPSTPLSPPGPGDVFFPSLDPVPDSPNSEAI
As to the kind of experiment: cell-based or functional assay.

Assay [4] concerns the target T1, mVISTA-COMP-his, pentameric form comprising the extracellular IgV domain of murine VISTA (mouse). Briefly: SPR (BIAcore T200), single-cycle kinetics, mVISTA-COMP-his captured on anti-His chip, mAb injected at 20, 40, 80, 160, 320 nM, 1:1 fit.
Assay [5] has as its target hVISTA-COMP-his, pentameric form comprising the extracellular IgV domain of human VISTA (human) (UniProt Q9H7M9). Briefly: SPR (BIAcore T200), single-cycle kinetics; hVISTA-COMP-his captured on anti-His chip, mAb as analyte; 1:1 Langmuir fit.

Sequence of hVISTA-COMP-his, pentameric form comprising the extracellular IgV domain of human VISTA (human) (Q9H7M9 33-194): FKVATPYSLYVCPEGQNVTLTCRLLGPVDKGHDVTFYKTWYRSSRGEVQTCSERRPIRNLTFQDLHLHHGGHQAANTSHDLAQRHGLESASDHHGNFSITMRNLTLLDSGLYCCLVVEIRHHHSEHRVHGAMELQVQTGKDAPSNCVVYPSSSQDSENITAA

B1: rat anti-hmVISTA mAb 7C6 (antibody, part only; not given: light chain, rat IgG2a, V domains shown, part only)
VH: QVQLQQSGAELAKPGSSVKISCKASGYTFTSYYISWIKQTTGQGLEYIGYINTGSGGTNYNEKFKGKATLTVDKSSSTAFMQLSSLTPDDSAVYYCAREGTFYSGDVGYWYFDFWGPGSMVTVSS
Usually Kd stands for the equilibrium constant for the complex coming apart. A high value points to lower affinity. One may read the koff as the rate constant with which the complex falls apart. A lower koff goes with a long-lived complex. Usually kon stands for the rate constant with which the complex forms. A lower kon goes with slower complex formation. In the case of B1, the Kd in assay [1] is 3 nM; in assay [2] it was 838 nM; in assay [4], 3 nM; in assay [5], 840 nM. For the same molecule, the koff in assay [2] stood at 0.000331 s⁻¹; in assay [4], 0.000177 s⁻¹. The on-rate constant (kon) was 395 M⁻¹ s⁻¹ in assay [2] and 59000 M⁻¹ s⁻¹ in assay [4]. The same molecule returned a reduction of proliferation of ConA-stimulated CD4+ T cells, mouse splenocytes in assay [3] of 4%.
